Patent US6730828B1, “Isolated nucleic acids encoding a wheat glutathione transferase, plants transformed therewith and methods of use thereof” (Aventis Agriculture Limited, priority 1997, dated 2004)

B1: WIC 1: recombinant type I wheat GST, SEQ ID No. 3, amino acid SEQ ID No. 4 (protein)
chain: MAAPAVKVYGWAMSPFVARALLCLEEAGVEYELVPMSREAGDHRQPDFLARNPFGQVPVLEDGDLTIFESRAVARHVLRKHKPELLGSGSPESAAMVDVWLEVEAHQHQTPAGTIVMQCILTPFLGCQRDQAAIDENAAKLTNLFDVYEARLSASRYLAGEAVSLADLSHFPFMRYFMDTEYASLVEERPHVKAWWEEFKASPAAKRVTEFMPPNFGFGKKAEK
modifications: Triticum aestivum L.
B2: WIC 3: recombinant type I wheat GST, SEQ ID No. 7, amino acid SEQ ID No. 8; coding sequence identical in WIC 7 and WIC 8 (protein)
chain: MAPVKLYGATLSWNVTRCVAALEEAGVQYEIVPINFGTGEHKSPDHLARNPFGQVPALQDGDLYVFESRAICKYACRKNKPELLKEGDIKESAMVDVWLEVEAHQYTAALSPILFECLIHPMLGGATDQKVIDDNLVKIKNVLAVYEAHLSKSKYLAGDFLSLADLNHVSVTLCLAATPYASLFDAYPHVKAWWTDLLARPSVQKVAALMKP
modifications: Triticum aestivum L.
B3: WIC 5: recombinant type I wheat GST, SEQ ID No. 9, amino acid SEQ ID No. 10 (protein)
chain: MAPIKLYGMMLSANVTRVTTLLNELGLEFDFVDVDLRTGAHKHPDFLKLNPFGQIPALQDGDEVVFESRAINRYIATKYGASLLPTPSAKLEAWLEVESHHFYPPARTLVYELVIKPMLGAPTDAAEVDKNAADLAKLLDVYEAHLAAGNKYLAGDAFPLADANHMSYLFMLTKSPKADLVASRPHVKAWWEEISARPAWAKTVASIPLPPAV
modifications: Triticum aestivum L.
B4: WIC 2: recombinant type I wheat GST, SEQ ID No. 5, amino acid SEQ ID No. 6 (protein)
chain: MAPAVKVYGWAVSPFVARPLLCLEEAGVEYELVSMSRAAGDHRQPDFLARNPFGQVPVLEDGDLTLFESRAIARHVLRKHKPELLGCGSPEAEAMVDVWLEVEAHQYNPAASAIVVQCIILPLLGGARDQAVVDENVAKLKKVLEVYEARLSASRYLAGDDISLADLSHFPFTRYFMETEYAPLVAELPHVNAWWEGLKARPAARKVTELMPPDLGLGKKAE
modifications: Triticum aestivum L.
B5: Triticum aestivum GST 1 subunit (25 kDa) (enzyme)
chain: MAGEKGLVLLDFWVSPFGQRVRIALAEKGLPYEYAEEDLMAGKSDRLLRANPVHKKIPVLLHDGRAVNESLIILQYLEEAFPDAPALLPSDPYARAQARFWADYVDKKVYDCGSRLWKLKGEPQAQARAEMLDILKTLDGALGDKPFFGGDKFGFVDAAFAPFTAWFHSYERYGEFSLPEVAPKIAAWAKRCGERESVAKSLYSPDKVYDFIGLLKKKYGIE
notes: Native subunit in wheat shoot extracts; also called TaGST1
B6: WIC 4: recombinant type I wheat GST, SEQ ID No. 11, amino acid SEQ ID No. 12; coding sequence identical in WIC 10 (protein)
chain: MAPVKVFGPAMSTNVARVLVCLEEVGAEYEVVDIDFKAMEHKSPEHLVRNPFGQIPAFQDGDLLLFESRAIARYVLRKYKKNEVDLLREGDLKEAAMVDVWTEVDAHTYNPAISPIVYECSSTAHARLPTNQTVVDESLEKLKNVLEVYEARLSKHDYLAGDFVSFADLNHFPYTFYFMATPHAALFDSYPHVKAWWERIMARPAVKKLAAQMVPKKP
modifications: Triticum aestivum L.

Legend:
[1] = GST activity toward herbicide fluorodifen (HPLC-based assay); format: biochemical; conditions: recombinant wheat GST expressed in E. coli, affinity purified; ± standard error
Procedure: (§1) The purified isoenzymes were assayed for GST activity toward herbicides using the HPLC-based assays described by Edwards R. and Cole D. J. (Pesticide Biochemistry and Physiology Vol. 54, pp96-104 (1996)) and the results are presented in Table 2. […] These isoenzymes had additional activities as glutathione peroxidases able to reduce linoleic acid hydroperoxide, a major reaction product formed during membrane peroxidation in plants (Williamson and Beverly. J. Cereal Sci. 8, 1988, 155-163).
(§2) To assay the recombinant fusion proteins for GST activity, the E. coli were grown in the presence of IPTG and then pelleted by centrifugation. The bacteria were then lysed by sonication and the protein precipitated using 80% ammonium sulphate. After resuspension and desalting, GSTs were purified by affinity chromatography. The WIC 3 fusion protein was purified using sulphobromophthalein-S-glutathione affinity chromatography (Mozer et al. Biochem. 22, 1983, 1068-1072) while the other WIC fusion proteins were purified using glutathione-agarose (Mannervik and Guthenberg. Methods Enzymol. 77 1981, 231-235).The purified enzymes were then assayed for GST activities toward herbicides (Table 3) and GST activities toward non-herbicide substrates and glutathione peroxidase activities toward organic hydroperoxides (Table 4).
(§3) A polyclonal antiserum was raised in a rabbit to a mixture of TaGST1-2 and TaGST1-3. When tested against crude extracts from safener-treated wheat shoots the antiserum recognised both the 25 kDa TaGST1 subunit and the 26 kDa safener-inducible TaGST2 and TaGST3 subunits. The antiserum was then used in conjunction with the antiserum raised to TaGST1-1 to immuno screen the cDNA library prepared from fenchlorazole ethyl treated wheat shoots as described in example 1. Duplicate lifts were taken from the plated out library and the first blot screened with the antiserum raised against TaGST1-2 and TaGST1-3. The second blot was screened with the antiserum raised to TaGST1-1. Five plaques were identified from the first blot which were absent from the second blot corresponding to cDNAs encoding TaGST2 or TaGST3 like polypeptides and theses clones were purified and the respective plasmids sequenced. […] The other three clones ICC. ICP and ICV had identical DNA sequences (SEQ ID No. 17) and predicted amino acid sequence (SEQ ID No. 18). GST ICJ was sub-cloned into the pET 11a vector after using PCR to introduce a Nde 1 restriction site into the translation start site, using the primer 5′ AGGTAGTTACATATGGCCGGAGGA 3′ (SEQ ID No. 19) in the amplification. following sub-cloning, the sequence of GST ICJ was re-checked to ensure no PCR induced errors had been introduced. The recombinant GST ICJ was then expressed in E. coli and purified by S-hexylglutathione affinity chromatography. The purified GST ICJ was assayed for activities as a GST (Table 3) and as a glutathione peroxidase (Table 4). […] GST ICV was finally expressed as the respective beta-galactosidase fusion protein using the Bluescript plasmid and assayed for GST activity (Table 3 ) and glutathione peroxidase activity (Table 4) in crude bacterial lysates. The specific activity of GST ICV toward these substrates was then calculated by I) subtracting the low levels of GST and GPOX activity present due the endogenous activities in the E. coli and ii) determining the proportion of protein in the lysate present as recombinant GST ICV from SDS-PAGE analysis, by densitometry analysis of polypeptides stained with Coomassie blue.

[2] = GST activity toward crotonaldehyde; format: biochemical; conditions: recombinant wheat GST, affinity purified; ± standard error
Procedure: as §2

[3] = GST activity toward CDNB; format: biochemical; conditions: recombinant wheat GST expressed in E. coli, affinity purified
Procedure: as §1
To confirm that TaGST1 encoded a GST, it was expressed as a fusion protein with beta-galactosidase using the pBluescript plasmid in E. coli strain SOLR. TaGST1 clones were inoculated into LB liquid medium and were grown overnight at 37/C on all orbital shaker in the presence of IPTG. Bacteria were then pelleted by centrifugation, lysed by sonication and assayed for GST activity toward CDNB and analysed by SDS-PAGE and Western blotting using the anti-TaGSTI-I serum. With all six TaGST1 clones, GST activity toward CDNB could be determined in the crude extracts in the range 30-50 nkat/mg crude lysate.
as §2
as §3, with “The specific activity of GST ICV toward these substrates was then calculated by I) subtracting the low levels of GST and GPOX activity present due the endogenous activities in the E. coli and ii) determining the proportion of protein in the lysate present as recombinant GST ICV from SDS-PAGE analysis, by densitometry analysis of polypeptides stained with Coomassie blue.” left out

[4] = GST activity toward herbicide fenoxaprop-ethyl (HPLC-based assay); format: biochemical; conditions: recombinant wheat GST expressed in E. coli, affinity purified; ± standard error
Procedure: as §1, §2, §3

[5] = Glutathione peroxidase activity toward cumene hydroperoxide; format: biochemical; conditions: recombinant wheat GST, affinity purified; ± standard error (n = 3)
Procedure: as §2, §3

[6] = GST activity toward benzyl isothiocyanate; format: biochemical; conditions: recombinant wheat GST, affinity purified; ± standard error
Procedure: as §2

[7] = GST activity toward herbicide metolachlor (HPLC-based assay); format: biochemical; conditions: recombinant wheat GST expressed in E. coli, affinity purified; ± standard error
Procedure: as §1, §2, §3

[8] = molecular target: the molecule itself; assay: subunit composition of purified isoenzymes (anion exchange, reversed-phase HPLC, SDS-PAGE)
Procedure: The component polypeptides in the active fractions were then analysed by silver staining after resolution by sodium dodecyl sulphate polyacrylamide gel electrophoresis (SDS-PAGE). It was concluded that in fenchlorazole-ethyl-treated wheat the polar GSTs were composed of 25 kDa and 26 kDa polypeptides, while the hydrophobic fraction contained 25 kDa, 26 kDa and 24 kDa polypeptides. Further analysis by reversed-phase HPLC confirmed the subunit compositions (FIG. 2). Based on the combined analyses by Q-sepharose, HPLC and SDS-PAGE these GST polypeptides were named as described in Table 1, which also contains details of how these subunits associate together to form the active dimers found in plants and the relative abundance of these subunits in extracts from unsafened and fenchlorazole-ethyl treated (safened) plants.

[9] = GST activity toward ethacrynic acid; format: biochemical; conditions: recombinant wheat GST, affinity purified; ± standard error; N.D = not detected
Procedure: as §2

Row | Molecule | GST activity toward fluorodifen [1] [nkat.mg^−1] | GST activity toward crotonaldehyde [2] [nkat.mg^−1] | GST activity toward CDNB [3] | GST activity toward fenoxaprop-ethyl [4] [nkat.mg^−1] | Glutathione peroxidase activity toward cumene hydroperoxide [5] | GST activity toward benzyl isothiocyanate [6] [nkat.mg^−1] | GST activity toward metolachlor [7] [nkat.mg^−1] | binding result [8] | GST activity toward ethacrynic acid [9] [nkat.mg^−1]
1 | B1 | 0.136 ± 0.011 | 7.1 ± 0.7 | 406.5 nkat.mg^−1 | 0.050 ± 0.010 | 18.6 ± 0.5 absorbance change at 340 nm.mg^−1 | 18.0 ± 3.75 | 0.315 ± 0.003 | – | –
2 | B2 | 0.014 ± 0.006 | 6.3 ± 0.9 | 2,519 nkat.mg^−1 | 0.093 ± 0.002 | 1.4 ± 0.3 absorbance change at 340 nm.mg^−1 | 9.0 ± 0.5 | 0.053 ± 0.004 | – | –
3 | B3 | 0.030 ± 0.002 | 4.5 ± 0.5 | 174 nkat.mg^−1 | 0.067 ± 0.003 | 1.3 ± 0.2 absorbance change at 340 nm.mg^−1 | 9.4 ± 2.0 | 0.040 ± 0.004 | – | –
4 | B4 | 0.096 ± 0.002 | 5.5 ± 1.3 | 187 nkat.mg^−1 | 0.085 ± 0.002 | 28.2 ± 1.7 absorbance change at 340 nm.mg^−1 | 33.3 ± 4.5 | 0.512 ± 0.04 | – | –
5 | B5 | – | – | – | – | – | – | – | binds | –
6 | B6 | 0.036 ± 0.004 | 5.5 ± 0.6 | 980 nkat.mg^−1 | 0.012 ± 0.001 | 6.2 ± 0.3 absorbance change at 340 nm.mg^−1 | 4.2 ± 0.4 | 0.037 ± 0.003 | – | 1.4 ± 0.3
